According to patent US20140348865A1, “[…] ON AN HIV-1 V1V2 SITE-OF-VULNERABILITY” (The United States of America, as represented by the …, priority 2011, published 2014):

Columns and labels:
[1] = molecular target: linked dimers of the gp120 V1/V2 domain; assay: SPR
1JO8-ZM109 V1V2 scaffold [2] = assay: ELISA, antibody dilution series on the scaffold
epitope-scaffold 2ZJR_A [3] = assay: ELISA, antibody dilution series on the scaffold
1X3E = assay: ELISA, antibody dilution series on the scaffold
epitope-scaffold 1VH8_C [4] = assay: ELISA, antibody dilution series on the scaffold after large-scale expression
[5] = molecular target: linked dimers of the gp120 V1/V2 domain; assay: gel filtration shift
[6] = molecular target: Env of HIV-1 strain 6631 (pseudovirus) (HIV-1); assay: cell-based or functional assay
[7] = molecular target: Env of HIV-1 strain T251-18 (pseudovirus) (HIV-1); assay: cell-based or functional assay
[8] = molecular target: Env of HIV-1 strain QH209 (pseudovirus) (HIV-1); assay: cell-based or functional assay
[9] = molecular target: Env of HIV-1 strain QH0515 (pseudovirus) (HIV-1); assay: cell-based or functional assay
[10] = molecular target: Env of HIV-1 strain 6322 (pseudovirus) (HIV-1); assay: cell-based or functional assay
[11] = molecular target: Env of HIV-1 strain CNE30 (pseudovirus) (HIV-1); assay: cell-based or functional assay
[12] = molecular target: Env of HIV-1 strain 6405 (pseudovirus) (HIV-1); assay: cell-based or functional assay
[13] = molecular target: Env of HIV-1 strain X2088 (pseudovirus) (HIV-1); assay: cell-based or functional assay
[14] = molecular target: Env of HIV-1 strain RHPA (pseudovirus) (HIV-1); assay: cell-based or functional assay
[15] = molecular target: Env of HIV-1 strain 3873 (pseudovirus) (HIV-1); assay: cell-based or functional assay
[16] = molecular target: Env of HIV-1 strain ZM135 (pseudovirus) (HIV-1); assay: cell-based or functional assay
[17] = molecular target: Env of HIV-1 strain CNE4 (pseudovirus) (HIV-1); assay: cell-based or functional assay
[18] = molecular target: Env of HIV-1 strain JRFL (pseudovirus) (HIV-1); assay: cell-based or functional assay
[19] = molecular target: Env of HIV-1 strain 398 (pseudovirus) (HIV-1); assay: cell-based or functional assay
[20] = molecular target: Env of HIV-1 strain 7165.18 (pseudovirus) (HIV-1); assay: cell-based or functional assay
[21] = molecular target: Env of HIV-1 strain 0439 (pseudovirus) (HIV-1); assay: cell-based or functional assay
[22] = molecular target: Env of HIV-1 strain BG 1168 (pseudovirus) (HIV-1); assay: cell-based or functional assay
[23] = molecular target: Env of HIV-1 strain CNE56 (pseudovirus) (HIV-1); assay: cell-based or functional assay
[24] = molecular target: Env of HIV-1 strain 6471 (pseudovirus) (HIV-1); assay: cell-based or functional assay
[25] = molecular target: Env of HIV-1 strain A03349M1 (pseudovirus) (HIV-1); assay: cell-based or functional assay
1JO8-ZM109 V1V2 scaffold [26] = assay: ELISA, PG9 dilution series
epitope-scaffold 2ZJR_B = assay: ELISA, PG9 dilution series
epitope-scaffold 2ZJR_A [27] = assay: ELISA, PG9 dilution series
epitope-scaffold 1VH8_C [28] = assay: ELISA, PG9 dilution series
[29] = molecular target: gp120 of HIV-1 strain 16055, full length (HIV-1); assay: ELISA, PG9 dilution series

Q: Which results are given for monoclonal antibody PG9?
A: Kd [1]: < 1000 nM; EC50 (read off the curve) (1JO8-ZM109 V1V2 scaffold [2]): 0.5 µg/mL; EC50 (read off the curve) (epitope-scaffold 2ZJR_A [3]): 0.3 µg/mL; EC50 (read off the curve) (1X3E): 1 µg/mL; EC50 (read off the curve) (epitope-scaffold 1VH8_C [4]): 0.8 µg/mL; percent active for PG9 binding [5]: 100%; neutralization IC50, Env-pseudovirus, TZM-bl cells [6]: > 50 µg/mL; neutralization IC50, Env-pseudovirus, TZM-bl cells [7]: > 50 µg/mL; neutralization IC50, Env-pseudovirus, TZM-bl cells [8]: > 50 µg/mL; neutralization IC50, Env-pseudovirus, TZM-bl cells [9]: > 50 µg/mL; neutralization IC50, Env-pseudovirus, TZM-bl cells [10]: > 50 µg/mL; neutralization IC50, Env-pseudovirus, TZM-bl cells [11]: > 50 µg/mL; neutralization IC50, Env-pseudovirus, TZM-bl cells [12]: > 50 µg/mL; neutralization IC50, Env-pseudovirus, TZM-bl cells [13]: > 50 µg/mL; neutralization IC50, Env-pseudovirus, TZM-bl cells [14]: > 50 µg/mL; neutralization IC50, Env-pseudovirus, TZM-bl cells [15]: > 50 µg/mL; neutralization IC50, Env-pseudovirus, TZM-bl cells [16]: > 50 µg/mL; neutralization IC50, Env-pseudovirus, TZM-bl cells [17]: > 50 µg/mL; neutralization IC50, Env-pseudovirus, TZM-bl cells [18]: > 50 µg/mL; neutralization IC50, Env-pseudovirus, TZM-bl cells [19]: > 50 µg/mL; neutralization IC50, Env-pseudovirus, TZM-bl cells [20]: > 50 µg/mL; neutralization IC50, Env-pseudovirus, TZM-bl cells [21]: > 50 µg/mL; neutralization IC50, Env-pseudovirus, TZM-bl cells [22]: > 50 µg/mL; neutralization IC50, Env-pseudovirus, TZM-bl cells [23]: > 50 µg/mL; neutralization IC50, Env-pseudovirus, TZM-bl cells [24]: > 50 µg/mL; neutralization IC50, Env-pseudovirus, TZM-bl cells [25]: > 50 µg/mL; EC50 (read off the curve) (1JO8-ZM109 V1V2 scaffold [26]): 0.03 µg/mL; EC50 (read off the curve) (epitope-scaffold 2ZJR_B): 0.01 µg/mL; EC50 (read off the curve) (epitope-scaffold 2ZJR_A [27]): 0.01 µg/mL; EC50 (read off the curve) (epitope-scaffold 1VH8_C [28]): 0.03 µg/mL; EC50 (read off the curve) [29]: 0.004 µg/mL
